Laboratory results from patent publication US20250042994A1 (HAINAN SIMCERE ZAIMING PHARMACEUTICAL, published 2025).
Substitutions are numbered along the chain they refer to. Values belong to the binder of their own block, whether it stands above or below them.

Columns and labels:
[1] = molecular target: T1, cynomolgus monkey CD19 on peripheral blood B cells (cynomolgus monkey (Macaca fascicularis), UniProt A0A2K5W8L9 20-557); experiment: FACS, cynomolgus PBMC, CD20+ B cells
T1 construct: whole, on cells; also called cynomolgus monkey B cells
T1 sequence: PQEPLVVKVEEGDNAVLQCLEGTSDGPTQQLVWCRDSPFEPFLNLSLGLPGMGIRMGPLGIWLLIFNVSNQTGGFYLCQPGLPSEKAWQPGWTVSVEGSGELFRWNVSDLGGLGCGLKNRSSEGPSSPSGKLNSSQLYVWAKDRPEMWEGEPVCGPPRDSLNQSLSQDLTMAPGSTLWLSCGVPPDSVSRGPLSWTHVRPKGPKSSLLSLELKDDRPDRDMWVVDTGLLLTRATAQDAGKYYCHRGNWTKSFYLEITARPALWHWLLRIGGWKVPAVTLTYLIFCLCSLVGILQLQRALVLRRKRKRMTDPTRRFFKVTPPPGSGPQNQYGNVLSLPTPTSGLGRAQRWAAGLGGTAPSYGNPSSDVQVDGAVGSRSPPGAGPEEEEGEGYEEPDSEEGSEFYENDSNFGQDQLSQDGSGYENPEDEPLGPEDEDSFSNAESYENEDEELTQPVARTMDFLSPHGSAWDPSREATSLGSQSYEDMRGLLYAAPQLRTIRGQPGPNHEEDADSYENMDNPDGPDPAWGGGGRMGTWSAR
Description: The monkey peripheral blood mononuclear cells were extracted from fresh cynomolgus monkey peripheral blood (purchased from Shanghai Medicilon Inc.) according to the instructions of Ficoll-Paque Plus (purchased from GE Healthcae, catalog number: 171440-02). After the cell suspension was centrifuged, the cells were resuspended in PBS containing 1% BSA, and then the cells were counted. […] The mixture was incubated for 1 h at room temperature. After washing the cells three times, APC-labeled secondary antibody anti-human IgG Fc (catalog number: 409306, purchased from Biolegend) was added. After incubation at room temperature in the dark for 30 minutes, the cells were washed 5 times, gently resuspended with PBS containing 1% BSA, and detected and analyzed by FACS (FACS Canto™, purchased from BD Company), in which CD20 was used as a marker of B cells to gate the CD20-positive B cell population, the proportion of the chimeric antibody-labeled positive cells was analyzed, and the proportion of the chimeric antibody positive cell population to B cell population was calculated after treatments with the chimeric antibodies at the concentrations of 100 nM, 10 nM and 1 nM, respectively.

[2] = molecular target: T2, monkey CD19 on HEK293T-monkey CD19 cells (monkey); experiment: FACS on HEK293T-monkey CD19 cells
T2 construct: whole, on cells
Description: (§1) After the digestion was terminated, the cells were washed 2 times with a PBS buffer; and for suspension cell Raji, the supernatant of the medium was discarded by directly centrifugation, and the cell pellet was washed 2 times with PBS. After counting the cells in the previous step, the cell pellet was resuspended with [PBS+2% (w/w) BSA] blocking solution to 2×10⁶ cells/ml, and added to a 96-well FACS reaction plate at 50 μl/well, and then the sample to be tested was added at 50 μl/well, and incubated on ice for 2 h. The obtained mixture was centrifuged and washed 3 times with a PBS buffer. […] The obtained mixture was centrifuged and washed 5 times with a PBS buffer, and FACS (FACS Canto™, purchased from BD Company) was used for detection and result analysis. Data analysis was performed by software (FlowJo) to obtain the mean fluorescence intensity (MFI) of the cells. And then software (GraphPad Prism8) was used for analysis, data fitting, and EC50 value calculation. […] The same method was used to detect the binding of the chimeric antibodies to endogenous CD19-negative cells, MoLT4 cells (purchased from ATCC, CRL-1582), and CHO-K1 cells.
HEK293T-monkey CD19 cells were subjected to FACS detection and data analysis according to the method in example 5.2. […] The same method was used to detect binding of the chimeric antibodies to HEK293T cells.

[3] = molecular target: T3, human CD19 on CHO-K1-human CD19 cells (human, UniProt P15391 20-556); experiment: FACS on CHO-K1-human CD19 cells
T3 construct: whole, on cells; also called CHO-K1-human CD19-2C8
T3 sequence (looked up): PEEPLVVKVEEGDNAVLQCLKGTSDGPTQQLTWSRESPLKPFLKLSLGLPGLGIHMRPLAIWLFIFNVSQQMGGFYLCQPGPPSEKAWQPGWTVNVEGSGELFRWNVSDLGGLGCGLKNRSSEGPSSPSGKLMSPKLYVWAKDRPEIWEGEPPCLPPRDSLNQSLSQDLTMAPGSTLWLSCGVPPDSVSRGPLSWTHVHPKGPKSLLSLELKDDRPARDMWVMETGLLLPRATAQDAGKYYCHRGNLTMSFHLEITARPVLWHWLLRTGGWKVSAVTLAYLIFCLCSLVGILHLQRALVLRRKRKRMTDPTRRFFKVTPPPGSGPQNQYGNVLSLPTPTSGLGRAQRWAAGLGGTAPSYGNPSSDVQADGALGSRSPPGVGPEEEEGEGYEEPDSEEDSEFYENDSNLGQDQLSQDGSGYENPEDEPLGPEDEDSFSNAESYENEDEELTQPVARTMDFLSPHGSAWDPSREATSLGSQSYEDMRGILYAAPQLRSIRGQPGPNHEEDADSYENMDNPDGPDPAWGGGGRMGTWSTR
Description: as §1, with “The desired cells were scale-up cultured in a T-75 cell culture flask to the logarithmic growth phase. For the adherent cell CHO-K1, the medium was aspirated, the cells were washed 2 times with a PBS buffer, and then digested with trypsin. After the” for “After the”

human CD19 on Raji cells = molecular target: T4, human CD19 on Raji cells (human, UniProt P15391 20-556); experiment: FACS on Raji cells
T4 construct: whole, on cells
T4 sequence (looked up): T3 sequence (looked up)
Description: as §1, with “The desired cells were scale-up cultured in a T-75 cell culture flask to the logarithmic growth phase. For the adherent cell CHO-K1, the medium was aspirated, the cells were washed 2 times with a PBS buffer, and then digested with trypsin. After the” for “After the”

B1: F1-mab003 (antibody, human IgG1, V domains shown)
VH: EVQLQQSGPELVKPGASVKMSCKASGYTFTDYVMHWVRQTPGQGLEWIGYFNPYNDGTNYNEKFKVKATLTSDKSSTTAYMELSSLTSEDSAVYYCARGVYYYGRDFDYWGQGTTLTVSS
VL: DVVLTQTPLSLPVSLGDQASISCRSSQSLENSNGNSYLNWYLQKPGQSPQLLIYRVSNRFSGVLDRFSGSGSGTDFTLKISRVEAEDLGVYFCLQITHVPWTFGGGTKLEIK
notes: human-murine chimeric antibody, human IgG1
Proportion of chimeric antibody positive cells to B cells (%) at 1 nM [1]: 15%
Proportion of chimeric antibody positive cells to B cells (%) at 10 nM [1]: 32%
Proportion of chimeric antibody positive cells to B cells (%) at 100 nM [1]: 59%
EC50 [2]: 1.76 nM
Maximum mean fluorescence intensity [2]: 75000
EC50 [3]: 0.69 nM
Maximum mean fluorescence intensity [3]: 66900
EC50 (human CD19 on Raji cells): 0.57 nM
Maximum mean fluorescence intensity (human CD19 on Raji cells): 33100

B4: F2.15.26 (antibody, human IgG1, V domains shown)
VH: QVQLKESGPGLVAPSQSLSITCTVSGFSLTDYGVSWIRQSPGKGLEWLGVIWGSGDTYYNSVLESRLSINKDNSKNQVFLKMNSLQTDDAAMYFCAKHSYYGGSFAMDYWGQGTSVTVSS
VL: DIQMTQTTSSLSASLGDRVTISCRASQDISNYLNWYQQKPDGTVKLLIYYTSRLHSGVPSRFSGSGSGTDYSLTISNLEQEDIATYFCQQGKTLPWTFGGGTKLEIK
notes: as for B1
Proportion of chimeric antibody positive cells to B cells (%) at 1 nM [1]: 2%
Proportion of chimeric antibody positive cells to B cells (%) at 10 nM [1]: 6%
Proportion of chimeric antibody positive cells to B cells (%) at 100 nM [1]: 22%
EC50 [2]: 16.7 nM
Maximum mean fluorescence intensity [2]: 28700
EC50 [3]: 0.71 nM
Maximum mean fluorescence intensity [3]: 60400
EC50 (human CD19 on Raji cells): 0.53 nM
Maximum mean fluorescence intensity (human CD19 on Raji cells): 29200

B7: F3.5.1 (antibody, human IgG1, V domains shown)
VH: QAQLQQSGPELVKPGASVKISCKASGYAFSGSWMNWVQQRPGKGLEWIGRIYPGDGDTYYNGKFKDKAILTADKSSSTAYMQLSSLTSEDSAVYFCAQLRYRYVMDYWGQGTSVTVSS
VL: DIVLTQSPASLAVSLGQRATISCRASESVSIHGSHLMHWYQQKPGQPPRLLIYAASNLESGVPARFSGSGSETDFTLNIHPVEEEDAATYFCQQGIKDPYTFGGGTKLEIK
notes: as for B1
Proportion of chimeric antibody positive cells to B cells (%) at 1 nM [1]: 6%
Proportion of chimeric antibody positive cells to B cells (%) at 10 nM [1]: 15%
Proportion of chimeric antibody positive cells to B cells (%) at 100 nM [1]: 23%
EC50 [2]: 6.11 nM
Maximum mean fluorescence intensity [2]: 80000
EC50 [3]: 2.49 nM
Maximum mean fluorescence intensity [3]: 49900
EC50 (human CD19 on Raji cells): 1.47 nM
Maximum mean fluorescence intensity (human CD19 on Raji cells): 24800

More lines, now with the values ahead:

Proportion of chimeric antibody positive cells to B cells (%) at 1 nM [1]: 1%
Proportion of chimeric antibody positive cells to B cells (%) at 10 nM [1]: 2%
Proportion of chimeric antibody positive cells to B cells (%) at 100 nM [1]: 9%
EC50 [2]: 3.99 nM
Maximum mean fluorescence intensity [2]: 98400
EC50 [3]: 0.61 nM
Maximum mean fluorescence intensity [3]: 63700
EC50 (human CD19 on Raji cells): 0.43 nM
Maximum mean fluorescence intensity (human CD19 on Raji cells): 35800
B2: F3.64.4 (antibody, human IgG1, V domains shown)
VH: EVQLQQSGPELVKPGASVKISCKASGYTFTDYHINWVKQSHGKSPEWIGDINPNNGGTTYNQKFKDKATLTVDKSSSTAFMELRSLTSEDSAVYYCARFITTVVAWYFDVWGTGTTVTVSS
VL: DIQMTQSPASLSVSVGETVTITCRASENIYSNLAWYQQKQGKSPQLLVYAATNLADGVPSRFSGSGSGTQYSLKINSLQSEDFGNYYCQRFWDTPRTFGGGTKLEIK
notes: as for B1

Proportion of chimeric antibody positive cells to B cells (%) at 1 nM [1]: 1%
Proportion of chimeric antibody positive cells to B cells (%) at 10 nM [1]: 3%
Proportion of chimeric antibody positive cells to B cells (%) at 100 nM [1]: 8%
EC50 [2]: 2.64 nM
Maximum mean fluorescence intensity [2]: 66400
EC50 [3]: 2.46 nM
Maximum mean fluorescence intensity [3]: 43900
EC50 (human CD19 on Raji cells): 5.24 nM
Maximum mean fluorescence intensity (human CD19 on Raji cells): 27100
B3: F3.13.2 (antibody, human IgG1, V domains shown)
VH: DVQLQESGPGLMKPSQSLSLTCSVTGYSITSGYYWNWIRQFPGNKLEWMGYISYDGSNNYNPSLKNRFSITRDTSKNQFFLKLNSVTTEDTATYYCARRKLTGGPYFDYWGQGTTLTVSS
VL: DIVLTQSPASLAVTLGQRATISCRASESVSFHGFHIMHWYQQKPGQPPKLLIYAASHLVSGVPDRFSGSGSETDFTLNIHPVEEEDAAAYFCQQSVEDPWTFGGGTKLEIK
notes: as for B1

Proportion of chimeric antibody positive cells to B cells (%) at 1 nM [1]: 38%
Proportion of chimeric antibody positive cells to B cells (%) at 10 nM [1]: 91%
Proportion of chimeric antibody positive cells to B cells (%) at 100 nM [1]: 99%
EC50 [2]: 2.08 nM
Maximum mean fluorescence intensity [2]: 173000
EC50 [3]: 1.9 nM
Maximum mean fluorescence intensity [3]: 48300
EC50 (human CD19 on Raji cells): 2.9 nM
Maximum mean fluorescence intensity (human CD19 on Raji cells): 29700
B5: F3.3.10 (antibody, human IgG1, V domains shown)
VH: DVQLQESGPGLAKLSQSLSLTCSVTGYSITSGYYWNWIRQFPGNKLEWMGHISYDGNNNYNPSLKNRISITRDTSKNQFFLKLNSVTTEDTATYYCARENYSNYYFDYWGQGTTLTVSS
VL: DIVLTQSPASLAVSLGQRATISCRASQSVSKSSYTYIHWYQQKPGQPPKLLIKYASILQSGVPARFSGSGSGTDFTLNFHPVEEEDTATYYCQHSWEIPYTFGGGTKLEIK
notes: as for B1

Proportion of chimeric antibody positive cells to B cells (%) at 1 nM [1]: 1%
Proportion of chimeric antibody positive cells to B cells (%) at 10 nM [1]: 1%
Proportion of chimeric antibody positive cells to B cells (%) at 100 nM [1]: 1%
Maximum mean fluorescence intensity [2]: 121
EC50 [3]: 4.55 nM
Maximum mean fluorescence intensity [3]: 3850
EC50 (human CD19 on Raji cells): 3.41 nM
Maximum mean fluorescence intensity (human CD19 on Raji cells): 30100
B6: F3.74.4 (antibody, human IgG1, V domains shown)
VH: QVQLQQSGAELVRPGASVTLSCKASGYTFTDYEMHWVKQTPVHGLEWIGGIAPETGLTTYNQKFEDKAILTADKSSRTAYMELRSLTSEDSAVYFCNPNNYGLWGTGTTVTVSS
VL: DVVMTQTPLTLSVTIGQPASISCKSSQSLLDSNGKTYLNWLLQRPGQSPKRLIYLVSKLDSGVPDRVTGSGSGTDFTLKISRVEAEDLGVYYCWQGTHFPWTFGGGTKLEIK
notes: as for B1

Proportion of chimeric antibody positive cells to B cells (%) at 1 nM [1]: 1%
Proportion of chimeric antibody positive cells to B cells (%) at 10 nM [1]: 1%
Proportion of chimeric antibody positive cells to B cells (%) at 100 nM [1]: 5%
Maximum mean fluorescence intensity [2]: 281
EC50 [3]: 6 nM
Maximum mean fluorescence intensity [3]: 49100
EC50 (human CD19 on Raji cells): 2.59 nM
Maximum mean fluorescence intensity (human CD19 on Raji cells): 27000
B8: F3.40.14 (antibody, human IgG1, V domains shown)
VH: B7 VH with N61S, K74T, Y101S, T112A
VL: B7 VL with S34T, K97D
notes: as for B1
